In test [1] the target is T1, recombinant human CD27/TNFRSF7/Fc chimera (R&D Systems Catalog No. 382-CD) (UniProt P26842 20-191).
T1 chain: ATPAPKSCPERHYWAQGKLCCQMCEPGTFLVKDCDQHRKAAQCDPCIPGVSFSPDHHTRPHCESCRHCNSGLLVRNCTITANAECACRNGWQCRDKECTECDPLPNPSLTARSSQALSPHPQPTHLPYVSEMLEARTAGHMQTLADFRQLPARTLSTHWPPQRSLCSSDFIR
The experiment in a line: Biacore SPR.

Test [2] deals with T1, recombinant human CD27/TNFRSF7/Fc …. The experiment in a line: Biacore SPR.

B1: 3H8-1B11 (antibody, V domains shown)
VH: EVQLVESGGGLVQPGGSLRLSCAASGFTFSSYWMAWVRQAPGKGLEWLGNIKQDGSEKYYVDSVKGRFTISRDNAKNSLYLQMNSLRAEDTAVYYCVRELGMDWYFDLWGRGTLVTVSS
VL: EIVLTQSPATLSLSPGERATLSCRASQSVDSYLAWYQQKPGQAPRLLIYDASNRATGIPARFSGSGSGTDFTLTISNLEPEDFAVYYCQQRSNWPPTFGQGTKVEIK
In the case of B1, the dissociation constant (Kd) in test [1] was determined as 0.0556 nM. For the same molecule, the Ka in test [2] was found to be 1.81e+10 M⁻¹.

B2: 2C2-1A10 (antibody, V domains shown)
VH: QVQLVESGGGVVQPGRSLRLSCAASGFTFSSYDIHWVRQAPGKGLEWVAVIWNDGSNKYYADSVKGRFTISRDNSTNSLFLQMNSLRAEDTAVYYCVGGTADLEHWDQGTLVTVSS
VL: DIQMTQSPSSLSASVGDRVTITCRASQGISSWLAWYQQKPEKAPKSLIYAASSLQSGVPSRFSGSGSGTDFTLTISSLQPEDFATYYCQQYNSYPLTFGGGTKVEIK
For the molecule B2, the dissociation constant Kd in test [1] was determined as 0.0841 nM. The Ka in test [2] was 1.2e+10 M⁻¹.

B3: 3A10-G10 (antibody, V domains shown)
VH: QVQLVESGGGVVQPGRSLRLSCAASGFTFSHYGMHWVRQAPGKGPEWVAIIWYDGSNKYYADSVKGRFTISRDNSKNTLDLQMNSLRAEDTAVYYCARDGWTTMVRGLNVFDIWGQGTMVTVSS
VL: DIQMTQSPSSLSASVGDRVTITCRASQDISSWLAWYQQKPEKAPKSLIYAASSLQSGVPSRFSGSGSGTDFTLTISSLQPEDFATYYCQQYNSYPPTFGQGTRLEIK
With B3, the Kd in test [1] is 0.202 nM. Moreover, the Ka in test [2] came to 4.97e+09 M⁻¹.

B4: 1H8-B4 (antibody, V domains shown)
VH: QVQLVESGGGVVQPGRSLRLSCAASGFTFNIYDMHWVRQAPGKGLEWVAVIWYDGSNQYYADSVKGRFTISRDNSKNTLYLQMNILRAEDTAVYYCARGTHWGYFDYWGQGTLVTVSS
VL: DIQMTQSPSSLSASVGDRVTITCRASQGISSWLAWYQQKPEKAPKSLIYAASNLQSGVPSRFSGSGSGTDFTLTISSLQPEDFATYYCQQYNSYPRTFGQGTKVEIK
For the molecule B4, the Kd in test [1] came to 0.158 nM. In addition, the Ka in test [2] amounted to 6.39e+09 M⁻¹.

B5: 2G9-1D11 (antibody, V domains shown)
VH: QVQLVESGGGVVQPGRSLRLSCAASGFTLSSHDIHWVRQAPGKGLEWVAVIWNDGSNKYYADSVKGRFTISRDNSTNSLFLQMNSLRAEDTAVYYCVRGTADLEHWDQGTLVTVSS
VL: DIQMTQSPSSLSASVGDRVTITCRASQGISSWLAWYQQKPEKAPKSLIYAASSLQSGVPSRFSGSGSGTDFTLTISSLQPEDFATYYCQQYNSYPLTFGGGTKVEIK
As for B5, in test [1], the equilibrium dissociation constant (Kd) turned out to be 0.00153 nM. Further, the Ka in test [2] is 6.6e+11 M⁻¹.

B6: 1F5-1H5 (antibody, V domains shown)
VH: QVQLVESGGGVVQPGRSLRLSCAASGFTFSSYDMHWVRQAPGKGLEWVAVIWYDGSNKYYADSVKGRFTISRDNSKNTLYLQMNSLRAEDTAVYYCARGSGNWGFFDYWGQGTLVTVSS
VL: DIQMTQSPSSLSASVGDRVTITCRASQGISRWLAWYQQKPEKAPKSLIYAASSLQSGVPSRFSGSGSGTDFTLTISSLQPEDFATYYCQQYNTYPRTFGQGTKVEIK
For B6, the dissociation constant (Kd) in test [1] stood at 0.186 nM. Moreover, the Ka in test [2] was 5.37e+09 M⁻¹.

B7: 3H12-1E12 (antibody, V domains shown)
VH: QVQLVESGGGVVQPGRSLRLSCATSGFTFSSYDMHWVRQAPGKGLEWVAVIWYDGSNKYYADSVKGRFTISRDNSKNTLYLQMNSLGDEDTAVYYCARGSGNWGFFDYWGQGTLVTVSS
VL: DIQMTQSPSSLSASVGDRVTITCRASQGISRWLAWYQQKPEKAPKSLIYAASSLQSGVPSRFSGSGSGTDFTLTISSLQPEDFATYYCQQYNTYPRTFGQGTKVEIK
For the molecule B7, the Kd in test [1] was 0.358 nM. Further, in test [2], the Ka was determined as 2.8e+09 M⁻¹.

B8: 1G5-1B9 (antibody, V domains shown)
VH: QVQLVESGGGVVQPGRSLRLSCAASGFSFSSYGMHWVRQAPGKGLEWVALLWYDGSHKDFADSVKGRFTISRDNSKNTLDLQMNSLRAEDTAVYYCAREGLAVPGHWYFDLWGRGTLVTVSS
VL: AIQLTQSPSSLSASVGDRVTITCRASQGISSALAWYQQKPGKAPKLLIYDASSLESGVPSRFSGSGSGTDFTLTISSLQPEDFATYYCQQFNTYPRTFGQGTKVEIK
On to B8, for which the Kd in test [1] was found to be 0.402 nM. For the same molecule, the Ka in test [2] is 2.55e+09 M⁻¹.

What is called Kd is a measure of binding affinity in units of concentration.

(Values after patent US20120213771A1 (published 2012).)
